Laboratory results from patent publication US20120269821A1 (published 2012).

Columns and labels:
[1] = target: Du156.12 envelope (HIV-1); assay: cell-based or functional assay; set-up: unit not given beside the values
[2] = target: ZM197M.PB7 envelope (HIV-1); assay: cell-based or functional assay; set-up: unit not given beside the values
[3] = target: CAP206.1.B5 envelope (HIV-1); assay: cell-based or functional assay; set-up: unit not given beside the values
[4] = target: Du422.1 envelope (HIV-1); assay: cell-based or functional assay; set-up: unit not given beside the values
[5] = target: TRO.11 envelope (HIV-1); assay: cell-based or functional assay; set-up: unit not given beside the values
[6] = target: QH0692.42 envelope (HIV-1); assay: cell-based or functional assay; set-up: unit not given beside the values
[7] = target: Du156.12 envelope (HIV-1); assay: cell-based or functional assay
[8] = target: ZM197M.PB7 envelope (HIV-1); assay: cell-based or functional assay
[9] = target: CAP206.1.B5 envelope (HIV-1); assay: cell-based or functional assay
[10] = target: Du422.1 envelope (HIV-1); assay: cell-based or functional assay
[11] = target: SC422661.8 envelope (HIV-1); assay: cell-based or functional assay
[12] = target: QH0692.42 envelope (HIV-1); assay: cell-based or functional assay
[13] = target: hepatitis E2 protein (Hepatitis C); assay: antigen panel (luminex assay per paragraph 163); unit not given
[14] = target: T1, MOJO gp140 (HIV-1); assay: as above
T1 construct: domain: gp140

[15] = target: HIV-1 gp41 (HIV-1); assay: as above

B1: CAP206-CH12 (antibody, V domains shown)
VH: QVQLVQSGAEVKKPGSSVKLSCKASGGTFGSYSVTWVRQAPGQTFEWVGRIVPWVGVPNYAPKFQGRVTITADKSSTVYMELTSLRFEDTAVYYCATAYEASGLSYYYYMDDWGKGTTVTVSS
VL: EIVLTQSPGTLSLSPGERATLSCRASQSVTSSYLAWFRHKPGQAPRLLIYGASYRGTGIPDRISGSGSGTDFTLTISRLEPEDFAVYYCQHYGGSPGMYTFGQGTRLEIK
notes: also called mAb 2311; 2311
[1]
  IC50 in TZM-bl cells: 14.9
[2]
  IC50 in TZM-bl cells: 13
[3]
  IC50 in TZM-bl cells: 5.9
[4]
  IC50 in TZM-bl cells: > 32
[5]
  IC50 in TZM-bl cells: 17.5
[6]
  IC50 in TZM-bl cells: > 32
[7]
  IC50 in TZM-bl/FcγRI cells: 0.6 mg/mL
[8]
  IC50 in TZM-bl/FcγRI cells: 0.3 mg/mL
[9]
  IC50 in TZM-bl/FcγRI cells: 0.7 mg/mL
[10]
  IC50 in TZM-bl/FcγRI cells: 2.7 mg/mL
[11]
  IC50 in TZM-bl/FcγRI cells: 0.4 mg/mL
[12]
  IC50 in TZM-bl/FcγRI cells: > 32 mg/mL
[13]
  reactivity: 855
[14]
  reactivity: 2910
[15]
  reactivity: 1980
